From paper PMC6467980

What was measured:
[1] = target: GB7_(V239D) (Adenovirus serotype 3 (Ad3)) (UniProt P04501); test: SPR; JO-4 or GB7_(V239D) amine-coupled to a CM5 chip (approximately 6000 RU), rhDSG2 flowed (17.4 nM to 0.87 nM, triplicate); Biacore 3000, 25 °C; 10 mM HEPES, 150 mM NaCl, 0.005% surfactant P20, 2 mM CaCl2 pH 7.4; 15 µl/min; 1:1 Langmuir fit; apparent (avidity)
[2] = target: JO-4 (Adenovirus serotype 3 (Ad3)) (UniProt P04501); test: as above
[3] = target: recombinant human desmoglein 2 (human) (UniProt Q14126)
[4] = target: recombinant human desmoglein 2 (human) (UniProt Q14126); remark: listed apart in the source
[5] = target: JO-4 (Adenovirus serotype 3 (Ad3)) (UniProt P04501); test: SEC-MALS; Superdex 200 Increase 10/300 GL, 1X TBS, 1 mL/min; 100 µL at 2.5-2.8 mg/mL in PBS with 5% glycerol; native (oxidized) or reduced with DTT (1.6 mM, 50 °C 10 min, then a further 1.6 mM)
[6] = target: recombinant human desmoglein 2 (human) (UniProt Q14126); test: SPR; rhDSG2 amine-coupled to a CM5 chip (6000 RU), junction openers flowed; Biacore 3000, 25 °C; 10 mM HEPES, 150 mM NaCl, 0.005% surfactant P20, 2 mM CaCl2 pH 7.4; 15 µl/min; 1:1 Langmuir fit; apparent (avidity)
P04501 = test: SEC-MALS; Superdex 200 Increase 10/300 GL, 1X TBS, 1 mL/min; 100 µL at 2.5-2.8 mg/mL in PBS with 5% glycerol; native (oxidized) or reduced with DTT (1.6 mM, 50 °C 10 min, then a further 1.6 mM)

Substance: recombinant human desmoglein 2 (from UniProt Q14126 50-609) (natural protein)
- Kd [1]: 1.19 nM
- koff [1]: 0.00075 s⁻¹
- kon [1]: 630000 M⁻¹ s⁻¹
- Kd [2]: 0.58 nM
- koff [2]: 0.00046 s⁻¹
- kon [2]: 790000 M⁻¹ s⁻¹

Substance: JO-4 (from UniProt P04501 127-319) (designed binder)
- VIA IC50: inhibition of entry of Ad3-GFP reporter virus into HeLa cells (blocks Ad3 virus on DSG2) [3]: 0.067 µg/mL
- DSG2 shedding (fold over PBS treated at 48 h), ELISA of shed DSG2 [4]: 1.44 fold
- % total as Monomer (M), oxidized [5]: 4%
- % total as Monomer (M), reduced [5]: 3%
- % total as Multimer (Multi.), oxidized [5]: 4%
- % total as Multimer (Multi.), reduced [5]: < 0.5%
- % total as Trimer (T), oxidized [5]: 2%
- % total as Trimer (T), reduced [5]: 2%
- % total as Trimer-Dimer (T-D), oxidized [5]: < 0.5%
- % total as Trimer-Dimer (T-D), reduced [5]: 1%
- stoichiometry N [5]: 3
- Kd [6]: 11.4 nM
- koff [6]: 0.00264 s⁻¹
- kon [6]: 232000 M⁻¹ s⁻¹

Substance: JO-4
- % total as Aggregate (Agg.), oxidized (P04501): 90%
- % total as Aggregate (Agg.), reduced (P04501): 94%
